Measurements taken from article PMC12452654.

Tests used:
[1] = molecular target: HtpG from Synechococcus elongatus PCC 7942 (Synechococcus elongatus PCC 7942); assay: SEC; Superdex 200 16/60, 40 mM HEPES-KOH pH 7.5, 150 mM KCl, 0.5 mM TCEP, 0.5 mL/min; peak at 65 mL, close to the 158 kDa IgG standard
[2] = molecular target: HtpG from Synechococcus elongatus PCC 7942 (Synechococcus elongatus PCC 7942); assay: AUC; sedimentation velocity, 45,000 rpm, 20 °C, 4 µM seHtpG, 40 mM HEPES-KOH pH 7.5, 150 mM KCl, 1 mM β-mercaptoethanol, absorbance at 280 nm

stoichiometry N [1]: 2
stoichiometry N [2]: 2
Substance: HtpG from Synechococcus elongatus PCC 7942 (natural protein)
